Measured values: PMC6996395
“Also recorded” adds a separate entry of the source.

Tests used:
Test in all cases: in situ proximity ligation assay
Details in all cases: reference: wild-type R-region
[1] = target: CFTR (split-CFTR: front half, R-region and back half as separate polypeptides) front half, 1-634 (UniProt P13569)
[2] = target: CFTR (split-CFTR: front half, R-region and back half as separate polypeptides) back half, 837-1480 (UniProt P13569)
[3] = target: CFTR (split-CFTR: front half, R-region and back half as separate polypeptides) front half, 1-634 (UniProt P13569); remark: listed apart in the source

Sequence of CFTR (split-CFTR: front half, R-region and back half as separate polypeptides) R-region, 635-836 (from UniProt P13569) S686D (P13569 1-634, stated change not applied): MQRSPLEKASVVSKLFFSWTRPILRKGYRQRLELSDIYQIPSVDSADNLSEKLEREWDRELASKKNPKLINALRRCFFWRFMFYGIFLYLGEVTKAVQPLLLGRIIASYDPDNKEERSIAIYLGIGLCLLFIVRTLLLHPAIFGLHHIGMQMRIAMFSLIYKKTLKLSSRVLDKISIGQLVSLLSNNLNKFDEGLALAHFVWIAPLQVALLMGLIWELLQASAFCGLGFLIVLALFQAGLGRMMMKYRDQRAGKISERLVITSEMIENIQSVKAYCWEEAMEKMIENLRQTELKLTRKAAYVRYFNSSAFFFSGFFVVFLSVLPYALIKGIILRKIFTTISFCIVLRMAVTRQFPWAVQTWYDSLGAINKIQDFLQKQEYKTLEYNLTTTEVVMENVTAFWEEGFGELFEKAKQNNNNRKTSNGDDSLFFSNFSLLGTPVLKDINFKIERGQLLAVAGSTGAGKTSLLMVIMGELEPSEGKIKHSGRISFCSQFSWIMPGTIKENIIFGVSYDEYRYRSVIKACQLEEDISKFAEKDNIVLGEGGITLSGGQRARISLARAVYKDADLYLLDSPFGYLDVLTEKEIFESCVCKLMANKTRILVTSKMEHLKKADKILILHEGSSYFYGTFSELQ

Substance | other: PLA CTCF ([1]; sites S641,T682) | other: PLA CTCF ([2]; sites S641,T682) | other: PLA CTCF ([3]; sites S641,T682) | other: PLA CTCF ([1]; sites S686) | other: PLA CTCF ([2]; sites S686) | other: PLA CTCF ([3]; sites S686)
CFTR (split-CFTR: front half, R-region and back half as separate polypeptides) R-region, 635-836 (from UniProt P13569) S641A/T682A | weaker; reference 3.90 ± 0.18; also recorded: stronger; reference 7.91 ± 0.21 | stronger; reference 3.41 ± 0.20 | stronger; reference 3.29 ± 0.24 |  |  | 
CFTR (split-CFTR: front half, R-region and back half as separate polypeptides) R-region, 635-836 (from UniProt P13569) S686A |  |  |  | stronger; reference 3.90 ± 0.18; also recorded: same; reference 5.67 ± 0.55; also recorded: weaker; reference 7.91 ± 0.21 | weaker; reference 3.41 ± 0.20 | weaker; reference 3.29 ± 0.24
CFTR (split-CFTR: front half, R-region and back half as separate polypeptides) R-region, 635-836 (from UniProt P13569) S686D |  |  |  | same; reference 5.67 ± 0.55; also recorded: weaker; reference 7.91 ± 0.21 |  | stronger; reference 3.29 ± 0.24
